From the nanobody polyreactivity screen of Harvey et al. (2022)

Test: yeast display, Sf9 membrane polyspecificity reagent, FACS + sequencing; frameworks hold sequencing errors
Method in brief: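 Sorting gates, low and high (top ~1%), were placed on anti-HA fluorescence to track expression and on streptavidin fluorescence to track reagent binding. A clone's polyreactivity label is taken from the gate it came out of. The reagent was 10% biotinylated, detergent-solubilized Sf9 membrane, applied for 1 hour at 4 °C to galactose-induced yeast display cells.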

Row | Sequence | polyreactivity (PSR sort gate)
1 | QVQLVESGGGLVQAGGSLRLSCAASGIFFIYSMGWYRQAPGKERELVADIDSGGPTYYADSVKGRFTISRDNAKNTVYLQMNSLKPEDTAVYYCAVDYSNVDLYSLLFYESDYWGQGTQVTVSS | low polyreactivity
2 | QVQLVESGGGLVQAGGSLRLSCSDSGSTFWLNAMGWYRQPPGKEREYVAAITWSSGSTYYADSVKGSFTISRDNAKNTVYLQMNSLKPEDTAVYYCNADYYFTSYEYEYWGQGTQVTVSS | low polyreactivity
3 | QVQLVESGVGLVQAGGSLRLSCAASGYTFLYYAMGWYRQAPGTERELVAAISSGGRTYYADSVKGRFTISRDNAKNTVYLQMNSLKPEVTAVYYCNTGALIHNGYYGLDYWGQGTQVTVSS | high polyreactivity
4 | QVQLVESGGGLVQAGGSLRLSCAASGFTFESYAMGWYRQAPGKERELVAAISWNGGSSYYADSVKGRFTISRDNAKNTVYLQMNSLKPEDTAVYYCAARGRAPRFRRIGYDYWGQGTQVSVSS | high polyreactivity
5 | QVQLVESGGGLVQAGGSLRLSCAASGFTFFRYAMGWYRQAPGKERELVATITRGGSTNYADSVKGRCTISRDNAKNTDYLQMNSLQPEDTAVYYCNKDKKTPTFDYWGQGTQVTVSS | low polyreactivity
6 | QVQLVESGGGLVQAGGSLRLSCAASGRILRYYAMGWYRQAPGKERELVAVITSSDGSTYYADSVKGRFTISRDNAKNTVYLQMNSLKPEDTAVYYCAADYHWYRRPGYNYWGQGTQVTVSS | low polyreactivity
7 | QVQLVESGGGLVQAGGSLLLSCAASGRIFYRYAMGWYRQAPGKERELVAAISRGGSTYYADSVKGRYTISRDNAKNTVYLQMNSLKPEDTAVYYCAKDGYWGYDYWGQGTQVTVSS | high polyreactivity
8 | QVQLVESGGGLVQAGGSLRLSCAASGSIFRKNAMGWYRQAPGKERELVAAITCTGRTTYADSVKGRFTISRDNAKNTVYLQMNSLKPEDTAVYYCAADVNYYQHRLYYWGQGTQVTVSS | low polyreactivity
9 | QVQLEESGGGLVQAGGSLRLSCAASGITFRQYAMGWYRQAPGKERELVATISSGDDTYYADSVKGRFTISRDNAKNTVYLQMNSLKPEDTAVYYCAARYWTSIVRYRGDYWGQGTQVTVSS | high polyreactivity
10 | QVQLVESGGGLVQAGGSLRLSCAASGSTFYFYAMGLFRQAPGKERELVAAITSSGGSTYYAESVKGRFTISRDNAKNTVYLQMISQKPEDTAVYYCATTYPQRYNGYDYWGQGTQVTVSS | low polyreactivity
11 | QVQLVESGGGLVQAGGSLRLSCAASGRIFWPNAMGWYLQAPGKESEFVAAIRWSSDRTYYADSVKGRFTISRDNAKNTVYLQMNSLKPEYTAVYYCNAVRYVISKYDYWGHGTQVTVSS | high polyreactivity
12 | QVQLVESGGGLVQAGGSLRLSCAASGSTFYPYAMGWYRQAPGKERELVAAIRFSGASTYYADSVKGRFTISRDNAKNTVYLQMNSLKPEDTAVYYCAARYVYSWPYRYGYWGQGTQVTVSS | low polyreactivity
13 | QVQLVESGGGLVQAGGSLRLSCSASGRTFYSYAMGWYRQPRGKERELVATIRRGGRTNYADSVKGRFTISRDNAKNTVYLLMNSLKPEDTAVYYCAAEDYRSLVTSTYDYWGQGTQVAVSS | low polyreactivity
14 | QVQLVQSGGGLVQAGGSLRLSCAASGSIINKYAMGWYRQAPGKERELVAAISFSGGSTYYADSVKGRFTISRDNAKITVYLQMNSLKPEDTAVYYCAAYHRPYQSYYWGKGTQVTVSS | high polyreactivity
15 | QVQLVESGGGLVQAGGSLRLSCAASGRIFRYYDMGWYRQAPGKEREFVAAITRSGAITYYADSVKGRFTISRDNAKNTVYLQMNSLKPEDTAVYYCAARYWAKFGYWGQGTQVTVSS | low polyreactivity
16 | QVQLVESGGRLVQAGGSLRLSCAASGRTFDFYAMGWYRQAPGKERELVAAISSRGGSTYYADSVKGRFTISRDNAKNTVYLQMNSLKPEDTAVYYCAKDLGYRGRYNYWGQGTQVTVSS | low polyreactivity

Row | Sequence | polyreactivity (PSR sort gate)
17 | QVQLVESGGGLVQAGGSLRLSCAASGSIFQPNMGWYRQAPGKERELVASITTGTTKYADSVKGRFTISRDNAKNTVYLQMNSLKPEDTAVYYCAADLQATVYLIFGYWGQGTQVTVSS | low polyreactivity
18 | QVQLVESGGGLVQAGGSLRLSCAASGRIFGYNAMGWSRQAPGKERELFAAITTSGGSTYYADSVKGRFTISRDNAKNTVYLQMNSLKPEDTAVYYCARDSLQVFYPYASDDYWGQGTQVTVSS | low polyreactivity
19 | QVQLLESGGGLVQAGGSLRLSCAASGRIFKFKAMGWYRQAPGKERQLVAATWSGGRTSYADSVKGRITISRDNAKYTVYLQMNSLKPEDTAVYYCAARWFDGDWDYWYDYWGQGTQVTVSS | low polyreactivity
20 | QVQLVESGGGLVQAGGSLRLSCAASGLIFRWYAMGWYRQAPGKERELVAAISRRGGNTYYADSVKGRFTISRDNAKNTVYLQMNSLKPEDTAVYYCAASPIRSQGNDYWGQGTQVNVSS | high polyreactivity
21 | HDQLVESAAGLVQAGGSLRLSCAASVLTFYQNALGWYRQAAGKEMEFVAAISRRGGSTYYADSVKGRFTISRDNAKNTVYLQMNSLKPEDTAVYYCAADYKRKSDGDYWGQGTQVTVSS | high polyreactivity
22 | QVQLVESGGGLVQAGGSLRLSCAASGRTFIVYAMGWYRQAPGTERELVAGITRGSTTYADSVKGRFTISRDNATNTVYLQMNSLKPEDTAVYYCAARSSRRGPISEGDYWGQGTHVTVSS | high polyreactivity
23 | QVQLVESGGGLVQAGGSLRLSCAASGSTVYLNAMGWYRQAPGKDRELVAAITRIGGSTYYADSVKGRFTISRDNAKNTVYLQMNSLKPEDTAVYYCAKDYGPARHDRYGYWGLGTQVTVSS | low polyreactivity
24 | QVQIVESGGGLVQAGGSLRLSCAASGRIFYAYAMGWYRQAPGKERELVAAISSGGSTKYADSVKGRFTISRDNAKNTVYLQMNSLKPEDTAVYYCNADATALSFGTLFDYWGQGTQVTVSS | low polyreactivity
25 | QVQLVESGGGLVQAGGSLRLSCAASGFTFYSYAMGWYRQAPGKERELVAAITDRGGSTYYADSVKGRFTISRDNAKNTVYLQMNSLKPEDTAVYYCAAASGIRSYSYGWLGREYYWGQGTQVTVSS | high polyreactivity
26 | QVQLVESGGGLVEAGGSLRLICAASGSTFGWYAMGWSRQAPGKEREFVAAISWSGTSTYYADSVKGRFTISRDNAKNTVYLQMNSLKPEDTAVYYCNARSKRANRSLGLGYWGQGTQVTVSS | low polyreactivity
27 | QVQVVESGGGLVQAGGSLRLSCAASGSIFGGYTMGWYRQAHGNERELVAGITISGGSTYYADSVKGRFTISRDTAKNTVYLQMNSLKPEDTAVYYCAAVSFVVSSWGYGYWGQGTQVTVSS | low polyreactivity
28 | KVQLVESGGGLVQAGGSLRLSCAASGSTFAGNALGWYRKAPGKERELVAAIDSSTGSTYYADSVKGRFTISRDNAKNTVYLQMNSLKPEDTAVYYCNKTSLLVKLDYWGPGTQVTVSS | low polyreactivity
29 | QVQLVESGGGLVQAGGSLRLSCASSGLIFPFYDMGWYRQAPGKERELVAAMTRSGDSTYYADSVKGRFTISRDNAKNTVYLQMNSLKPEDTAVSYCAAQPGTASYAGDGDSWGQGTQVTVSS | low polyreactivity
30 | QVQLVESGGGLVQAGGSLRLSCAPSGSTFYKYVMGWYRQAPGKERELVAAISQGGSSTYYADSVKGRFTISRDNAKYTVYVLMNSLKPEDTAVYYCAAQYWWWSRFEYDSWGQGTQVTVSS | low polyreactivity
31 | QVQVVESGGGLVQAGGSLRLICAASGSTSWSYAMGWYRQAPGKERELVAAITRTGSTNYADSVKGRFTISRDNAKNTVYLQMNSLKPEDTAVYYCVYATLRYDYWGQGTQVTVSS | low polyreactivity
32 | QVQLVESGGGLVQAGGSLRLSCAASGSTFRRNVMGWYRQAPGKERELVAAISRSGGRTYYADSVKGRFTISRDNAKNTVYLQMNSLKPEDTAVYYCNATRAGENPDGGDEYWGQGTQVTVSS | high polyreactivity
